± gives the half width of the 95% confidence interval.
Assays:
[1] = folding stability dG unfold from chymotrypsin proteolysis; higher = more stable
Method in brief: (§1)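 Unfolding free energy was derived, per protease or combined, by relating Bayesian-fitted K50 values from sequencing counts to a sequence-predicted unfolded-state K50 and a shared folded-state K50. The underlying digests exposed cysteine-free mini-proteins under 80 residues, in a PA-tagged cDNA display construct, to trypsin and chymotrypsin at 11 threefold-diluted concentrations and to a no-protease condition. A filter kept only designs with AlphaFold2 dimer inter-PAE above 15.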

[2] = folding stability dG unfold (combined trypsin and chymotrypsin); higher = more stable
Method in brief: as §1

[3] = folding stability dG unfold from trypsin proteolysis; higher = more stable
Method in brief: as §1

| Sequence | folding stability dG unfold [1] [kcal/mol] | folding stability dG unfold [2] [kcal/mol] | folding stability dG unfold [3] [kcal/mol] |
| --- | --- | --- | --- |
| SAGGSATKVIYGMSVEEIRAAIKAGAKKIIIVADTEEQKKAAAEELEKEYNIKIEVKKIKPKKKKKSAGGSA [r15_243_TrROS_Hall] | 2.22 ± 0.039 | 1.89 ± 0.17 | 0.83 ± 0.065 |
| SAGMPLPAEELAERLAKEIEESTDYKVSIEEIKPEGEYVIIKVRVELPEKYKDKGYEEEEFVAIFPGDLSAG [r5_970_TrMRF] | 0.806 ± 0.16 | 0.702 ± 0.25 | 0.703 ± 0.073 |
| SAGNIKISYDPDDGWLTITFPVAPGQEFSFKLNIMLPENGAKIKNVEVTGPLKDGQPVTITMKVTGIKPSAG [r5_737_TrROS] | 3.77 ± 0.064 | 3.27 ± 0.11 | 2.2 ± 0.13 |
| SAGMNLDNMKIKEIKLQVNPDGSVEVPFEFRFPNGKPMKVSMRVNNGMIEIYYPNGWPITIDIPPGAFSAGG [r19_84_TrROS] | 1.48 ± 0.16 | 1.36 ± 0.15 | 1.01 ± 0.15 |
| SAGPGAELVAEFEVELGDRGARIRIYRAPDFLIIRVDYPDGTVPVFRIDPRTGRIVEVRTFRVRPDLPLSAG [r14_676_TrMRF] | 1.91 ± 0.098 | 2.28 ± 0.11 | 2.56 ± 0.045 |
| SAGGSAGGKPKMTFPITDIYPPPGGGNVFIRIQSDDKPREFPFPNLENLEIEKDPEDGTVKIKWSAGGSAGG [r6_806_TrROS] | 0.307 ± 0.39 | -0.0766 ± 0.31 | 0.129 ± 0.36 |
| SAGGSAGGSDPEFELVRVEVFPFPTATLVRAVARFPPTDEYVEVELVHFPVPDRVLLRVRLLPSAGGSAGGS [r12_14_TrMRF] | 3.93 ± 0.071 | 3.58 ± 0.097 | 3.07 ± 0.064 |
| SAGGSAGGSAGGSKLPEGAKITITKNEDGSYTLTVTFPNGEKVEITMSEDELKKLLEALSAGGSAGGSAGGS [r4_16_TrROS_Hall] | 3.64 ± 0.11 | 3.79 ± 0.14 | 3.84 ± 0.15 |
| SAGGSAGGSSMTFISTSTSPGNGYTYNIYSQPGKVVVTTTAPDGTVSVTTVEVSPDTSVTVTAASAGGSAGG [r6_380_JUSTAS] | 1.36 ± 0.12 | 1.3 ± 0.085 | 1.16 ± 0.045 |
| SAGGSMITLTFPAPREVAVPAIEAAAEKHGVTILSVEFDPATGRLTVTVDSSLPEEEVRAMVAAVLASAGGS [r8_338_JUSTAS] | 4.47 ± 0.058 | 4.57 ± 0.075 | 4.75 ± 0.24 |
| SAGGSMKPAKKITFTFPDGRKAEIFFYPEEDTIELRIYFPETGTFVEIPVKSPEDLIETLKKLLAESAGGSA [r2_70_TrMRF] | 3.7 ± 0.14 | 3.75 ± 0.16 | 4.02 ± 0.16 |
| SAGGSAGGSASSMVKPEKLPNGEKVVVTTETVPDPNSDTPVTVVTTEIYKGDKIVEVKTTLVSAGGSAGGSA [r18_185_JUSTAS] | 0.384 ± 0.12 | 0.439 ± 0.13 | 0.339 ± 0.038 |
| SAGGMMTVRIVIEKDGKKITITAKVTKIEFDEETGKLTITFEDGSKKEIDLDKLKIKKIEVEPAPEEESAGG [r13_636_TrROS_Hall] | 3.06 ± 0.19 | 2.81 ± 0.21 | 1.66 ± 0.078 |
| SAGGMLLVRIRVKLSPEQIKALEEAGFEVVEERDGEVVVRLEVSPEQLEKLKALFPDAEIEVVELPPESAGG [r13_261_TrROS_Hall] | 4.96 ± 0.1 | 5.26 ± 0.29 | 5.44 ± 0.49 |
| SAGGSAGGSAGGSMVTLTVEKTFTSLLKTPESELIPVTSTVTEEVTIPESEATEELIKELSAGGSAGGSAGG [r7_777_JUSTAS] | -0.0189 ± 0.23 | 0.399 ± 0.2 | 0.388 ± 0.054 |
| SAGGSAKPKIEIEVEKLEGVKEGDTIEVKIKFPNGFIIKIEAKVKRVDGKLVIEVTKVEVIPKEDLSAGGSA [r15_636_TrROS_Hall] | 3.17 ± 0.2 | 3.16 ± 0.3 | 2.7 ± 0.14 |
| SAGGSAPMFEIWFRDPEAIEKLLEESGFPVSIERFPNDPNWVKITIFMKGPMEEAQDKLREALGLESAGGSA [r15_118_TrROS] | 2.95 ± 0.014 | 2.74 ± 0.036 | 2.29 ± 0.04 |
| SAGGMTLDQLKHALRHKKMQIHEPNPNGWYVTFQNPDGKPPTFPVKSDDELRDILRDAPGFEVEVQPVSAGG [r13_600_TrROS] | 0.84 ± 0.16 | 0.608 ± 0.2 | -0.0886 ± 0.17 |
| SAGGSAKPVMVRIKFPNMPPEKLQDAFQEYGMQPQNMDPNKGEMIIMIPWEAAEEIQDKNGFKIEISAGGSA [r15_731_TrROS] | 0.8 ± 0.17 | 0.323 ± 0.24 | -0.489 ± 0.16 |
| SAGGSAGGSAGKIEIDPSKPALVRVRLVPENGIPREIVVEAGDLSKLLPENFKVLSIELGSAGGSAGGSAGG [r17_449_TrMRF] | 0.397 ± 0.06 | 0.407 ± 0.067 | 0.295 ± 0.09 |
| SAGGSAGGSAGGEPIYIRINNYYIVINLDDGNIRVYPPMKGKKKKVPANDIKPIDPGDISAGGSAGGSAGGS [r10_709_TrROS] | 0.813 ± 0.071 | 1.07 ± 0.076 | 1.18 ± 0.025 |

Source: the supplement of paper PMC12764529
